The text below walks through data of US20250051463A1 (AstraZeneca / MedImmune, published 2025).

Assay [1] has as its target T1, human CD123 (IL3Rα) on cells (human, UniProt P26951 19-378).
T1 construct: whole, on cells; also called human IL3Rα expressed on 293 cells; AD293hIL3Rα
The assay is described as follows: flow cytometry on THP-1 CD123 (no dox) cells, Geo MFI. As for the experimental part:
THP-1 cells were transfected with an IL3Rα expression construct under the control of a doxycycline inducible promoter. THP-1 cells were maintained in DMEM containing 10% heat-inactivated fetal bovine serum (FBS) and were cultured in a humidified atmosphere of 5% CO₂ and at a temperature of 37° C. […] (Dox) inducible cells were stimulated with 1 μg/ml dox overnight before use. […] On the day of plating, cells were spun down at 1500 rpm for 3 minutes, counted, and resuspended to a final concentration of 1×10⁶ cells/ml. Two hundred μl of cells were plated in wells of 96 well microtiter plates. The plates were spun down at 1500 rpm for 3 minutes and flicked to remove media. One hundred μl of FACS buffer (PBS+2% FBS) was added to each well. […] The antibody concentration started at 12 μg/ml followed by six 1:3 dilutions (no antibody control was also run). The plates were incubated at 4° C. for 30 minutes. Following incubation, the plates were washed 3 times by spinning down at 1500 rpm for 3 minutes, flicked and 100 μl of FACs buffer was added. Alexa 647 secondary antibody (goat anti-human IgG (H+L)) was added at 1:1000 dilution in 100 μl followed by 30 minute 4° C. incubation. The plates were washed as above. […] Cells were analyzed on a BD Bioscience LSRII by collecting 10,000 cells. Flow data was analyzed in FlowJo software.
(In flow cytometry, cells or beads pass a laser one at a time.)

For a further assay, the target named is T2, GM-CSFRα (Homo sapiens (Human), UniProt P15509 23-320).
T2 construct: also called GM-CSFRa; GM-CSFRa sample; not shown: His tag
T2 sequence: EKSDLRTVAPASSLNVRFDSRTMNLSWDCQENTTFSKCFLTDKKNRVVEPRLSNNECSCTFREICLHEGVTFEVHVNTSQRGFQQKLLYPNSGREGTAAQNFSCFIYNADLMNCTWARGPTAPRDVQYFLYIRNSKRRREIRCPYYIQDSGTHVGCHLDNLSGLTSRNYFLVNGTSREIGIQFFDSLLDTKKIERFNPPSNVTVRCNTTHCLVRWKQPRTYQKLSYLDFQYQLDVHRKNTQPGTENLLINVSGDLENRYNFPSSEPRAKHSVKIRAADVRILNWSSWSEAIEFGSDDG
Kind of assay: biolayer interferometry, HT12-GL on the sensor, GM-CSFRa-His in solution. As for the experimental part: (§1) Biolayer interferometry binding experiments were performed using an Octet RED384 instrument, with all measurements made at 30° C. AHC biosensor probes were soaked in kinetics buffer (PBS pH 7.2+0.02% Tween-20, 0.1% BSA, 0.05% sodium azide) for 10 minutes, followed by baseline signal measurement in kinetics buffer for 60 seconds. […] For binding to hIL3-Rα, the antibody-loaded biosensor tips were dipped in binding buffer for 60 sec (baseline), followed by immersion in a solution containing dilutions of hIL3-Rα (10-0.16 μg/mL) for 300 sec (association), and subsequent immersion in kinetics buffer for 400 sec (dissociation). For binding to hIL5-Rα and GM-CSFRa, all steps were the same except the concentration of antigen was increased (50-1.56 μg/mL) and the dissociation step was decreased to 300 sec. The signal from a buffer only reference sample was subtracted, and all curves were fit with a 1:1 binding model to determine KD values.

The target in the next assay is T3, human IL-5Rα (human, UniProt Q01344 21-342, limits assumed).
T3 construct: Soluble analyte in the Octet assay; construct not described; also called hIL5-Rα; human IL-5Ra sample
T3 sequence (looked up): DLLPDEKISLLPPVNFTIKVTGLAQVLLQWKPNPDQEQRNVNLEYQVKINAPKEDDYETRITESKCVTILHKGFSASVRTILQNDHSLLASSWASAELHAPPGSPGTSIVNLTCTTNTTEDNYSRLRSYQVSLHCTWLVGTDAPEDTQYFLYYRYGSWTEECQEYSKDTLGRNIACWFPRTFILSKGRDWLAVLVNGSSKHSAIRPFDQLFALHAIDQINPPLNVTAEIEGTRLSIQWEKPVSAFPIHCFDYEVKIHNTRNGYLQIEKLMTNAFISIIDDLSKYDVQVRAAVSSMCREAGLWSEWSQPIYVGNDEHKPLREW
Kind of assay: biolayer interferometry, HT12-GL on the sensor, Sample ID: hIL5Ra-his in solution. As for the experimental part:
as §1
In general terms: Biolayer interferometry detects binding as a change in optical thickness at a sensor tip.

T1 sequence (P26951 19-378): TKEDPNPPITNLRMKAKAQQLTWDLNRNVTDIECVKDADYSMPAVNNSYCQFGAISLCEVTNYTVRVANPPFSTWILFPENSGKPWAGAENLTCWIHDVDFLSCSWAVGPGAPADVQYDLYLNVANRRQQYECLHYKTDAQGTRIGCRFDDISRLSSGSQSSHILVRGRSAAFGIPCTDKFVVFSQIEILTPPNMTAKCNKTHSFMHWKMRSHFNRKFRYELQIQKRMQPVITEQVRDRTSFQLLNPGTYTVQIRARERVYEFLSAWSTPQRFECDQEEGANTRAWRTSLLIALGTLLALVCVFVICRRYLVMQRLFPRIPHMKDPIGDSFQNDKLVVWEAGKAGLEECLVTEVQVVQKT

B1: HT12-GL antibody (antibody, human IgG1, kappa, V domains shown)
VH: EVQLLESGGGLVQPGGSLRLSCAASGFTFNIYAMTWVRQAPGKGLEWVSGISAGGDSTYYADSVKGRFTISRDNSKNTLYLQMNSLRAEDTAVYYCAKDRGYYYGMDVWGQGTTVTVSS
VL: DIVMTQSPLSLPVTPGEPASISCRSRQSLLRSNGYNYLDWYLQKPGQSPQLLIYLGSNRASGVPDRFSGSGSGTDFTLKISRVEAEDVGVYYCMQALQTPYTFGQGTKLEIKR
notes: elsewhere unlabeled with a secondary antibody; also called HT12-GL mAb; CD123 mAb
As for B1, in assay [1], the “EC50 (read off the curve)” value was about 0.2 µg/mL. For the same molecule, the binding result with GM-CSFRα and in the assay with human IL-5Rα was “no binding” each time.

A word on the EC50 (read off the curve): it is the concentration at which the effect is half-maximal.
